Experimental data: patent publication US20060021073A1

Target: Rab3
Experiment: cell-based or functional assay

wild-type Noc2 expressed from adenovirus Ad-Noc2 wt in pancreatic islets of Noc2-/- mice (from UniProt Q768S4 1-302)
Ca2+-triggered insulin secretion in cultured pancreatic islets of Noc2-/- mice (ng/islet/30 min): 1.2
